This passage reports binding signal (fold lower K1/2 than apo) and K half results from paper PMC2869534.

For the data set, the system named is SNF2h (human). The experiment in a line: Cy3 fluorescence intensity titration.

The substance 0-601-40 nucleosome, Cy3 yielded a binding signal (fold lower K1/2 than apo) of 3.
The substance 0-601-78 nucleosome, Cy3 yielded a K half of 353 nM.
